Assays:
MCP-4 = biological target: T1, MCP-4 (Homo sapiens, UniProt Q99616); experiment: Micro-array analysis of chemokine binding peptides: MCP-4; details: limit = start of the upper 75% of that peptide's response range
T1 construct: purchased 300-24
Protocol: (§1) (1) Printing: Chemokine (CK) solution (in water) was serially diluted with Print Reagent (GenTel BioSurfaces USA) to final concentrations of 50 μg and 25 μg/ml. BSA/BSA-Biotin control solutions (in water) were diluted with Print Reagent to 100 μg/ml. Amplified stock of M13 phage control (M13KEgIII Cloning Vector, New England Biolabs, Cat.No.E8101S) was stored in Tris Buffered Saline (TBS; pH7.5, 4° C.) and diluted with Print Reagent to the working titre (10^8 pfu/μl). An automated spotting robot (16 pin print tool, 0.4 mm head; BioRobotics, UK) was used to print the CK/BSA control/M13 control, 5 repeats per sample (CK 25 μg/ml and 50 μg/ml; BSA 100 μg/ml; M13 20 μl), on PATH Protein Microarray Slides (GenTel, Prod.No. 2-1005/-1025) at […], and 50-70% relative humidity. Printed micro-array slides were stored at Room Temperature (RT) or 4° C. for at least 24 h before use.
(§2) (2) Blocking: Block Buffer (500 μl/partition; PATHblock, GenTel, Prod.No. 2-1014) was applied to the slide for 1 hour at room temp (RT). After removal of Block Buffer, the slide was air dried for 25 minutes;
(§3) (3) Phage Presented Peptide Binding: Amplified recombinant phage stock was stored in TBS and diluted with Wash Buffer to working titer (10^7 pfu/μl). Recombinant phage suspension (300 μl) was applied per partition and incubated at RT for 1 hour with gentle agitation.
(§4) (4) First Washing: The slides were washed twice with Wash Buffer 300 μl/partition).
(§5) (5) Primary Antibody (Ab) Labeling: The slides were incubated with the Primary Ab (1 mg/ml diluted ×2500 (Wash Reagent), 300 μl; Mouse Anti-M13 monoclonal Ab; Amersham Biosciences, UK; Product Code 27-9420-01) for 45 minutes at RT.
(§6) (6) Second Washing: The slides were washed twice with Wash Buffer (300 μl/partition).
(§7) (7) Secondary Ab Labeling: The slides were incubated with Secondary Ab (1.5 mg/ml diluted ×5000 (Wash Reagent), 300 μl; Cy3-conjugated AffiniPure Goat Anti-Mouse IgG; Jackson ImmunoReserch Labs, USA; Product Code 115-165-062).
(§8) (8) Third Washing: The slides were washed twice with Wash Buffer (300 μl/partition).
(§9) (9) Rinse: the slides were rinsed twice with Rinse Buffer (PATHrinse, GenTel, Prod.No. 2-1018) then dried well.
(§10) (10) Scanning: The peptide-bound, labeled slide was scanned (Laser Intensity 80%, Gain 80%, Resolution 10 μm) with a ScanArray Life Scanner (Packard BioChip Technologies, USA).
(§11) (11) Analysis: Quantitative analysis of micro-array was performed by the SpotReader program of Niles Scientific (USA) and presented as Relative Fluorescence (RF) as a function of CK concentration. Micro-array readout (Cy3 fluorescence) was quantified to determine the relative binding affinities of a CBP for the CKs and by inference, the specificity of the CBP for binding to a CK.

Eotaxin 3 = biological target: T2, Eotaxin 3 (Homo sapiens, UniProt Q9Y258); experiment: Micro-array analysis of chemokine binding peptides: Eotaxin 3; details: limit = start of the upper 75% of that peptide's response range
T2 construct: purchased 300-48
T2 sequence (Q9Y258 24-94): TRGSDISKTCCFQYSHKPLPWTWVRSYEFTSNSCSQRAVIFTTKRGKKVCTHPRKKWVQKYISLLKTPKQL
Protocol: as §1, §2, §3, §4, §5, §6, §7, §8, §9, §10, §11

I-TAC = biological target: T3, I-TAC (Homo sapiens, UniProt O14625); experiment: Micro-array analysis of chemokine binding peptides: I-TAC; details: limit = start of the upper 75% of that peptide's response range
T3 construct: purchased 300-46
T3 sequence (O14625 22-94): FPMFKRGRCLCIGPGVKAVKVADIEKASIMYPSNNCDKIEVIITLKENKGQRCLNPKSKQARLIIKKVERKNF
Protocol: as §1, §2, §3, §4, §5, §6, §7, §8, §9, §10, §11

SDF1-β = biological target: T4, SDF1-β (Homo sapiens, UniProt P48061); experiment: Micro-array analysis of chemokine binding peptides: SDF1-β
T4 construct: purchased 300-28b
Protocol: as §1, §2, §3, §4, §5, §6, §7, §8, §9, §10, §11

I-309 = biological target: T5, I-309 (Homo sapiens, UniProt P22362); experiment: Micro-array analysis of chemokine binding peptides: I-309; details: limit = start of the upper 75% of that peptide's response range
T5 construct: purchased 300-37
T5 sequence (P22362 24-96): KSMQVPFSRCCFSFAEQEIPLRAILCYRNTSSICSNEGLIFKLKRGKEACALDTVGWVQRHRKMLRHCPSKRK
Protocol: as §1, §2, §3, §4, §5, §6, §7, §8, §9, §10, §11

GRO-β = biological target: T6, GRO-β (Homo sapiens, UniProt P19875); experiment: Micro-array analysis of chemokine binding peptides: GRO-β; details: limit = start of the upper 75% of that peptide's response range
T6 construct: purchased 300-39
T6 sequence (P19875 35-107): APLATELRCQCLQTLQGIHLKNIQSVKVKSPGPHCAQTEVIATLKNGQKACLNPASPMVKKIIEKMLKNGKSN
Protocol: as §1, §2, §3, §4, §5, §6, §7, §8, §9, §10, §11

SDF1-α = biological target: T7, SDF1-α (Homo sapiens, UniProt P48061); experiment: Micro-array analysis of chemokine binding peptides: SDF1-α
T7 construct: purchased 300-28a
Protocol: as §1, §2, §3, §4, §5, §6, §7, §8, §9, §10, §11

IL-8 = experiment: Micro-array analysis of chemokine binding peptides: IL-8; details: limit = start of the upper 75% of that peptide's response range
Protocol: as §1, §2, §3, §4, §5, §6, §7, §8, §9, §10, §11

Fractalkine = biological target: T8, Fractalkine (Homo sapiens, UniProt P78423); experiment: Micro-array analysis of chemokine binding peptides: Fractalkine
T8 construct: purchased 300-31
T8 sequence (P78423 25-100 limits assumed): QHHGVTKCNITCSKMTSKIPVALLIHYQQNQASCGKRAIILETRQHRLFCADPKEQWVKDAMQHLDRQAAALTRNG
Protocol: as §1, §2, §3, §4, §5, §6, §7, §8, §9, §10, §11

Mig = biological target: T9, Mig (Homo sapiens, UniProt Q07325); experiment: Micro-array analysis of chemokine binding peptides: Mig; details: limit = start of the upper 75% of that peptide's response range
T9 construct: purchased 300-26
T9 sequence (Q07325 23-125): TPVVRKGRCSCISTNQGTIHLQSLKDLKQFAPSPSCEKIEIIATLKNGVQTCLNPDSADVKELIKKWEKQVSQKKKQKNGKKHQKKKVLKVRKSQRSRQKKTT
Protocol: as §1, §2, §3, §4, §5, §6, §7, §8, §9, §10, §11

Eotaxin 2 = biological target: T10, Eotaxin 2 (Homo sapiens, UniProt O00175); experiment: Micro-array analysis of chemokine binding peptides: Eotaxin 2; details: limit = start of the upper 75% of that peptide's response range
T10 construct: purchased 300-33
T10 sequence (O00175 27-119): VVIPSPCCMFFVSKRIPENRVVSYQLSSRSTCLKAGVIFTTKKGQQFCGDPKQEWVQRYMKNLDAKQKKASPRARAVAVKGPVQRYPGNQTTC
Protocol: as §1, §2, §3, §4, §5, §6, §7, §8, §9, §10, §11

RANTES = biological target: T11, RANTES (Homo sapiens, UniProt P13501); experiment: Micro-array analysis of chemokine binding peptides: RANTES; details: limit = start of the upper 75% of that peptide's response range
T11 construct: purchased 300-06
T11 sequence (P13501 24-91): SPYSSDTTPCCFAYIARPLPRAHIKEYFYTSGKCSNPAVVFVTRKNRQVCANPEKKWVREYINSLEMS
Protocol: as §1, §2, §3, §4, §5, §6, §7, §8, §9, §10, §11

MCP-2 = biological target: T12, MCP-2 (Homo sapiens, UniProt P80075); experiment: Micro-array analysis of chemokine binding peptides: MCP-2; details: limit = start of the upper 75% of that peptide's response range
T12 construct: purchased 300-15
T12 sequence (P80075 24-99): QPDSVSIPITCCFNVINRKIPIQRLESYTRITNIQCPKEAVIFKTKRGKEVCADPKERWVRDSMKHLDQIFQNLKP
Protocol: as §1, §2, §3, §4, §5, §6, §7, §8, §9, §10, §11

BCA-1 = biological target: T13, BCA-1 (Homo sapiens, UniProt O43927); experiment: Micro-array analysis of chemokine binding peptides: BCA-1
T13 construct: purchased 300-47
T13 sequence (O43927 23-109): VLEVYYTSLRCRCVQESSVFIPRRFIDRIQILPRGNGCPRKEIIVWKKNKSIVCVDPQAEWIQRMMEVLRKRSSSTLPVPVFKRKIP
Protocol: as §1, §2, §3, §4, §5, §6, §7, §8, §9, §10, §11

Exodus-2 = biological target: T14, Exodus-2 (Homo sapiens, UniProt O00585); experiment: Micro-array analysis of chemokine binding peptides: Exodus-2
T14 construct: purchased 300-35
T14 sequence (O00585 24-134): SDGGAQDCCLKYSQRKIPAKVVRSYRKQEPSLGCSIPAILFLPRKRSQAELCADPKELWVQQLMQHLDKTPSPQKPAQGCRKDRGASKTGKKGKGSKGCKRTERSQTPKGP
Protocol: as §1, §2, §3, §4, §5, §6, §7, §8, §9, §10, §11

Lymphotactin = biological target: T15, Lymphotactin (Homo sapiens, UniProt P47992); experiment: Micro-array analysis of chemokine binding peptides: Lymphotactin
T15 construct: purchased 300-20
T15 sequence (P47992 22-114): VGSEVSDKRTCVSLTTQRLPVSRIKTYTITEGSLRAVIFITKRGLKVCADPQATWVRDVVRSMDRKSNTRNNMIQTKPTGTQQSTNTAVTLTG
Protocol: as §1, §2, §3, §4, §5, §6, §7, §8, §9, §10, §11

Eotaxin = biological target: T16, Eotaxin (Homo sapiens, UniProt P51671); experiment: Micro-array analysis of chemokine binding peptides: Eotaxin; details: limit = start of the upper 75% of that peptide's response range
T16 construct: purchased 300-21
Protocol: as §1, §2, §3, §4, §5, §6, §7, §8, §9, §10, §11

TECK = biological target: T17, TECK (Homo sapiens, UniProt O15444); experiment: Micro-array analysis of chemokine binding peptides: TECK
T17 construct: purchased 300-45
T17 sequence (O15444 24-150): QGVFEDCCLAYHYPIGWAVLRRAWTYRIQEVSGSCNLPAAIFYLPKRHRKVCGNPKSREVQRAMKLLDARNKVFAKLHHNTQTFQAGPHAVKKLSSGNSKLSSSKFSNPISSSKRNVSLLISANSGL
Protocol: as §1, §2, §3, §4, §5, §6, §7, §8, §9, §10, §11

T16 sequence (P51671 24-97): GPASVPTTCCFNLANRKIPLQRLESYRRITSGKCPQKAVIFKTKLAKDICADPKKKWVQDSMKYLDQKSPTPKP
T1 sequence (Q99616 17-98): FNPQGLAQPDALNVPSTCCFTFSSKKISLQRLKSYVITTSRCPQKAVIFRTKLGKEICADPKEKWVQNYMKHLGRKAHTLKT
T7 sequence (P48061 22-89 limits assumed): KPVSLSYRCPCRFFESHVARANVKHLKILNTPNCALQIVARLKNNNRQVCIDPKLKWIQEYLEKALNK
T4 sequence (P48061 22-93): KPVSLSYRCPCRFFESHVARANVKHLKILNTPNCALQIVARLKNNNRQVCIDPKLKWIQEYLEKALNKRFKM
Sequence of IL-8 (P10145 28-99 limits assumed): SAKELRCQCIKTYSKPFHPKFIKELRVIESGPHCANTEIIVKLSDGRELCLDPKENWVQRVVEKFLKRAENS

Substance: DYDY (listed as Homo sapiens) [Ph-p32]
- binding to MCP-4 with relatively high affinity (Relative Fluorescence Units) (MCP-4): > 10,000 RFU
- binding to Eotaxin 3 with relatively high affinity (Relative Fluorescence Units) (Eotaxin 3): > 10,000 RFU
- binding to I-TAC with relatively high affinity (Relative Fluorescence Units) (I-TAC): > 10,000 RFU
- binding to SDF1-β, stated in words (SDF1-β): bound
- binding to I-309 with relatively high affinity (Relative Fluorescence Units) (I-309): > 10,000 RFU
- binding to GRO-β with relatively high affinity (Relative Fluorescence Units) (GRO-β): > 10,000 RFU
- binding to SDF1-α, stated in words (SDF1-α): bound
- binding to IL-8 with relatively high affinity (Relative Fluorescence Units) (IL-8): > 10,000 RFU
- binding to Fractalkine, stated in words (Fractalkine): bound
- binding to Mig with relatively high affinity (Relative Fluorescence Units) (Mig): > 10,000 RFU
- binding to Eotaxin 2 with relatively high affinity (Relative Fluorescence Units) (Eotaxin 2): > 10,000 RFU
- binding to RANTES with relatively high affinity (Relative Fluorescence Units) (RANTES): > 10,000 RFU
- binding to MCP-2 with relatively high affinity (Relative Fluorescence Units) (MCP-2): > 10,000 RFU
- binding to BCA-1, stated in words (BCA-1): bound
- binding to Exodus-2, stated in words (Exodus-2): bound
- binding to Lymphotactin, stated in words (Lymphotactin): bound
- binding to Eotaxin with relatively high affinity (Relative Fluorescence Units) (Eotaxin): > 10,000 RFU
- binding to TECK, stated in words (TECK): bound

— US12072338B2, “Pharmaceutical peptides for the treatment of inflammatory diseases” (PROTAGONISTS LTD., priority 2007, dated 2024)
